Laboratory results: the supplement of paper PMC9170038

System: MS2 coat protein
Assay: apparent KD of MS2 coat protein; designed switch direction (-1 OFF switch, 1 ON switch): -1; higher = weaker reporter binding
Method in brief: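 Stalled E. coli RNA polymerase transcribed designed RNA switches on Illumina chips, which were then titrated with SNAP-549-labelled MS2 coat protein, doubling from 0.7 or 1.5 nM to 3 µM. Steps lasted from 0.8–1.5 h at the lowest concentration to 10–20 min at the highest. The apparent KD is each design's median over clusters of curve-fitted normalised fluorescence.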

[1] = input ligand: microRNA oligo, concentration not stated
[2] = Eterna round: R95, input ligand: microRNA oligo, concentration not stated
[3] = Eterna round: R95, input ligand: FMN 200 uM
[4] = Eterna round: R95, input ligand: none

Sequence | apparent KD of MS2 coat protein (input ligand: FMN 200 uM) [nM] | apparent KD of MS2 coat protein [1] [nM] | apparent KD of MS2 coat protein (input ligand: none) [nM] | apparent KD of MS2 coat protein [2] [nM] | apparent KD of MS2 coat protein [3] [nM] | apparent KD of MS2 coat protein [4] [nM]
UUUCUUGGGCAAGGAUAUCCUGUGCGGUUCCGGCUCGUGUCUGUCACAUGAGGAUCACCCAUGUGGGAGAAGGUGCCUGCGGUU [Design 83] (Eterna round: R96, puzzle: Exclusion NG 2) | 15.4 | 10.7 | 15.6 |  |  | 
UAAAAUUUAGGAUAUGCGUGAGAUAGAGUACGAUGAGCUGCACAUGAGGAUCACCCAUGUAGAAGGAAAUUUUA [-11, -8.6 kcal, 36% A] (Eterna round: R97, puzzle: Exclusion 2) | 58 |  | 31.2 |  |  | 
ACACAGCGAGGAUAUACAUGAGGAUCACCCAUGUGGCGGCCGUUACGGUAGCACUAGUGUAGAAGGCGCAUUGG [EX3 #35] (Eterna round: R97, puzzle: Exclusion 3) | 155 |  | 192 |  |  | 
UAUAUAUAGUAAGGAUAUGUAUAUAUUUUAUAAACAGAAGGUACUGACAUGAGGAUCACCCAUGUUUUAGUGUGGGCAUGUAGA [JMF's solution 7] (Eterna round: R96, puzzle: Exclusion NG 1) |  | 57.5 |  |  |  | 
GGAGAGGUAGGAUAUGGACCUUAGAACAUGAGGAUCACCCAUGUAGGACCACAUGAUUUGCGAGAAGGACCAGUCC [AK-MS2ROC-r4-exclusion5-7] (Eterna round: R97, puzzle: Exclusion 5) | 363 |  | 655 |  |  | 
UAGAAUCGAGGAUAUACAUGAGGAUCACCCAUGUGUUGCCGCAUGAUGUGAUCGUCAGGUAGAAGGCGAUUAUA [Exclusion 3 - Mod of Jieux's Gilly Gone Silly 23 v.7] (puzzle: Exclusion 3) |  |  |  | 35.4 |  | 
AGAAGUAGAAACCGAUCCUACAUGAGGAUCACCCAUGUAGCAAGACGUGCACGCGAAGCUCGUCAGACUACCAGAAA [salish99_TOv1_r3_005] (puzzle: Sensor v3, turn-off variant 1) |  |  |  | 223 | 159 | 337
GGGCCCGGAGGAUAUACAAUGGGCCCGGGAAAUUGGGCCCUACAUGAGGAUCACCCAUGUAGAAGGCCGGGCCC [-40.2, -38.1 kcal A 24%, 5c,0] (Eterna round: R97, puzzle: Exclusion 2) | 16.1 |  | 12.5 |  |  | 
UUUUAGUCAGGAUAUACAUGAGGAUCACCCAUGUAAAAUUUUAAUUUAAUUUUAAGGUGUAGAAGGGACAACCC [Ex3 #13] (Eterna round: R97, puzzle: Exclusion 3) | 26.6 |  | 32.6 |  |  | 
GGAAUACAUGAGGAUCACCCAUGUAAGGAUAUGCUGAAUAACACGGAAUAAUCGUGCAGCAGAAGGUACAAAGG [Mat - Mod of my Eli Mod D45] (puzzle: Exclusion 1) |  |  |  | 86.3 |  | 
AGUAACUAUCACGAAAGUGAUAGUUACGCAAGCAGUGAAACAUGAGGAUCACCCAUGUCCUCAUUUGCUCGUCUUAU [Sensor 3 - 26] (puzzle: Sensor v3, turn-off variant 2) |  |  |  | 435 | 53.9 | 48.6
AUUGUUUAUGUAGGAUAUGCCUGGCGUGCCUUCGCAGAAGGACAUGAGGAUCACCCAUGUAUUGCGGUCUGCGUUCAGAUCGCU [salish99_ExNG1_r4_025] (Eterna round: R96, puzzle: Exclusion NG 1) | 75 | 30.6 | 55.4 |  |  | 
GGUUGGCGAGGAUAUACAUGAGGAUCACCCAUGUGAAAAUAAAGUGAGGAAAAGAAAAGUAGAAGGCGCUGACG [Mat - Exclusion 3 - Mod of Salish D55] (puzzle: Exclusion 3) |  |  |  | 72.7 | 158 | 118
